Usually Kd stands for the concentration at which binding is half-saturated. Read a high Kd as weaker binding.

What all share (test): ITC
On the technique in general: Isothermal titration calorimetry measures the heat released or taken up as one component is titrated into another.

The target in test [1] is SARS-CoV-2 RBD T478I (SARS-CoV-2) (UniProt P0DTC2).
The target in test [2] is SARS-CoV-2 RBD Y453F (SARS-CoV-2) (UniProt P0DTC2).
The target in test [3] is SARS-CoV-2 RBD K417N (SARS-CoV-2) (UniProt P0DTC2).

On to “CC12.1 single chain variable fragment (scFv)”, for which the Kd amounted to 5.8 nM in test [1], 827 nM in test [2] and 119 nM in test [3].
